Experimental data reported in PMC9695642, “Conservation of Importin α Function in Apicomplexans: Ivermectin and GW5074 Target Plasmodium falciparum Importin α and Inhibit Parasite Growth in Culture” (International Journal of Molecular Sciences, 2022).

T1: Plasmodium falciparum importin α, biotinylated GST fusion protein (Plasmodium falciparum, UniProt Q8IAW0 1-545, biotin (Sulfo-NHS-Biotin reagent))
T1 construct: importin α (IMPα) of Plasmodium falciparum; also called PfIMPα; IMPα from P. falciparum; source: recombinantly expressed, purified as GST fusion protein
T1 sequence (looked up): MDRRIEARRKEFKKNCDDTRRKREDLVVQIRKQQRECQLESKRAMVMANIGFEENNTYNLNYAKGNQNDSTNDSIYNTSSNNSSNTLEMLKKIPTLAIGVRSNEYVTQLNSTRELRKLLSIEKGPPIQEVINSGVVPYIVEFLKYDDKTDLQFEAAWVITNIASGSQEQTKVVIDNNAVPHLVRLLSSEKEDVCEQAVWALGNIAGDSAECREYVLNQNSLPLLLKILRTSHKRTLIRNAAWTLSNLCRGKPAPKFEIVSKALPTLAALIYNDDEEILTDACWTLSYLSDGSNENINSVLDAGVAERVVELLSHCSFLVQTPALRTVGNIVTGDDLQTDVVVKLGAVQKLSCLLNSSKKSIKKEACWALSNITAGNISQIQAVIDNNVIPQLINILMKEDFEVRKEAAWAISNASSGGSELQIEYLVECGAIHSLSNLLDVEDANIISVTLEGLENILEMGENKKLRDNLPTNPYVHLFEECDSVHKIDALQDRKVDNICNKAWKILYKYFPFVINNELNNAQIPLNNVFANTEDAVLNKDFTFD

B1: His-tagged T-ag-NLS-GFP (NLS of simian virus SV40 large tumour antigen fused to GFP) (domain or fragment)
chain: PPKKKRKV
B2: His-tagged Plasmodium falciparum importin α (natural protein, UniProt Q8IAW0 1-545, looked up)
chain: T1 sequence (looked up)
notes: importin α (IMPα) of Plasmodium falciparum; also called PfIMPα; His-tagged PfIMPα

How the values were obtained:
Conditions in all cases: both partners purified
[1] = biological target: mammalian IMPα/β1 heterodimer from M. musculus (Mus musculus, UniProt P52293 1-529; P70168 1-876, biotin (Sulfo-NHS-Biotin reagent)); assay: AlphaScreen or HTRF; biotinylated IMPαs titrated against His-tagged NLS-GFPs (30 nM); apparent dissociation constant
[2] = biological target: T1, Plasmodium falciparum importin α, …; assay: as above
[3] = biological target: T2, Toxoplasma gondii importin α, biotinylated GST fusion protein (Toxoplasma gondii, biotin (Sulfo-NHS-Biotin reagent)); assay: as above
T2 construct: importin α (IMPα) of Toxoplasma gondii; also called TgIMPα; T. gondii IMPα; source: recombinantly expressed, purified as GST fusion protein

[4] = biological target: T3, biotinylated GST-MmIMPβ1 (Mus musculus importin β1) (Mus musculus, UniProt P70168 1-876, biotin (Sulfo-NHS-Biotin reagent)); assay: AlphaScreen or HTRF; His-tagged IMPαs (30 nM) titrated with increasing concentrations of biotinylated GST-MmIMPβ1 (legend: 5 nM)
T3 construct: Mus musculus importin β1 (MmIMPβ1); also called M. musculus IMPβ1; mammalian IMPβ1; source: recombinantly expressed, purified as GST fusion protein

Binder	Kd [1]	Kd [2]	Kd [3]	Kd [4]
B1	2.8 nM	2.9 nM	3.9 nM	–
B2	–	–	–	1.3 nM
